Measured values: patent EP4613767A1 (Shanghai Qilu Pharmaceutical Research and Development …, dated 2025)

Tests used:
[1] = target: T1, human CD3 naturally expressed on Jurkat cells (human, UniProt P07766 23-207; P04234 22-171; P09693 23-182); assay: FACS on Jurkat cells naturally expressing human CD3
T1 construct: whole, on cells; also called hCD3

[2] = target: T2, monkey GPC3 protein (Acro, Cat. No.: GP3-C522a) (monkey); assay: SPR Biacore 8K, anti-human Fc on CM5 chip, GPC3 protein as analyte, 1:1 fit
T2 construct: Bought recombinant protein

[3] = target: T3, human CD3 E&D protein (Acro, Cat. No.: CDD-H52W1) (human, UniProt P07766 23-126; P04234 22-105); assay: SPR Biacore 8K, CD3 E&D immobilised on CM5 chip, antibody as analyte, 1:1 fit
T3 construct: Bought recombinant protein

[4] = target: monkey CD3 E&D protein (Acro, Cat. No.: CDD-C52W4) (monkey, UniProt Q95LI5 22-117; Q95LI8 22-105); assay: as above
monkey CD3 E&D protein (Acro, Cat. No.: CDD-C52W4), sequence (Q95LI5 22-117, chain 1 of 2): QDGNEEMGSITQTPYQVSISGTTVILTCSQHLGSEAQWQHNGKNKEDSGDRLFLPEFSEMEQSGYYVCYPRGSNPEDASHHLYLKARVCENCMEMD
monkey CD3 E&D protein (Acro, Cat. No.: CDD-C52W4), sequence (Q95LI8 22-105, chain 2 of 2): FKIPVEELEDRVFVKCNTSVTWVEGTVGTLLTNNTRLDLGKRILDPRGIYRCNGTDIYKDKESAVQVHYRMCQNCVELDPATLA

T3 sequence (P07766 23-126, chain 1 of 2): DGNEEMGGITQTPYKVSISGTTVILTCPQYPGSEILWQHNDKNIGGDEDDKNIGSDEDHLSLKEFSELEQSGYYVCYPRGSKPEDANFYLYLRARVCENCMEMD
T3 sequence (P04234 22-105, chain 2 of 2): as the sequence (Q95LI8 22-105, chain 2 of 2) above, with V5I, K15N, V20I, T32S, N33D, N34I, A64T, N74S, L83V counted along it
T1 sequence (P07766 23-207, chain 1 of 3): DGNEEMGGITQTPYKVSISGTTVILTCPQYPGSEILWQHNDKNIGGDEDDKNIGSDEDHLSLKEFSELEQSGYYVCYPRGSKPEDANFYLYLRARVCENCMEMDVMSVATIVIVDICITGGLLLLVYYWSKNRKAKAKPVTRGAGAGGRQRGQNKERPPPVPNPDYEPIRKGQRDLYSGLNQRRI
T1 sequence (P04234 22-171, chain 2 of 3): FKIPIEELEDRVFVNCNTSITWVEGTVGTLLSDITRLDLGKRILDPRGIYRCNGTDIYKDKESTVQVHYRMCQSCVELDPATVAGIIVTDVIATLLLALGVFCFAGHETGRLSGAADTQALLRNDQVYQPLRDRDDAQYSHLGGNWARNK
T1 sequence (P09693 23-182, chain 3 of 3): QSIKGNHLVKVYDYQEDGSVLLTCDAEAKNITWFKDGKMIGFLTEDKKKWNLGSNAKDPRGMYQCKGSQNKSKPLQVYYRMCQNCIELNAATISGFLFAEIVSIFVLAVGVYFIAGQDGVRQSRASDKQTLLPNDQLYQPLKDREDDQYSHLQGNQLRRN

Binder | EC50 [1] [nM] | Kd [2] [nM] | koff [2] [s⁻¹] | kon [2] [M⁻¹ s⁻¹] | Kd [3] [nM] | koff [3] [s⁻¹] | kon [3] [M⁻¹ s⁻¹] | Kd [4] [nM] | koff [4] [s⁻¹] | kon [4] [M⁻¹ s⁻¹]
bispecific antigen-binding molecule G100 (bispecific antibody, Heterodimer of two chains (Format 1): one anti-GPC3 VHH on Knob-Fc, one anti-CD3 scFv on Hole-Fc; also called anti-CD3-GPC3 bispecific antibody; Format 1) chain 1: not shown chain 2: EVKLVESGGGLVQPGGSLKLSCAASGFTFNTYAMNWVRQAPGKGLEWVARIRSKYNNYATYYADSVKDRFTISRDDAKNTLYLQMNNLRTEDTAVYYCVRHGNFGNSYVSWFAYWGQGTLVTVSSGGGGSGGGGSGGGGSAQAVVTQEPSLTVSPGGTVTLTCRSSTGAVTTSNYANWVQQKPGQAPRGLIGGTNKRAPGTPARFSGSLLGGKAALTLSGAQPEDEAEYYCALWYSNLWVFGGGTKLTVLEPKSSDKTHTCPPCPAPEAAGGPSVFLFPPKPKDTLMISRTPEVTCVVVDVSHEDPEVKFNWYVDGVEVHNAKTKPREEQYNSTYRVVSVLTVLHQDWLNGKEYKCKVSNKALPAPIEKTISKAKGQPREPQVCTLPPSRDELTKNQVSLSCAVKGFYPSDIAVEWESNGQPENNYKTTPPVLDSDGSFFLVSKLTVDKSRWQQGNVFSCSVMHEALHNRYTQKSLSLSPGK | 23.9 | 9.15 | 0.00276 | 302000 | 3.49 | 0.00286 | 820000 | 5.66 | 0.00427 | 755000
bispecific antigen-binding molecule G156 (bispecific antibody, Heterodimer of two chains (Format 2): two anti-GPC3 VHH on the Knob-Fc chain, one anti-CD3 scFv on Hole-Fc; also called anti-CD3-GPC3 bispecific antibody; Format 2) chain 1: not shown chain 2: EVKLVESGGGLVQPGGSLKLSCAASGFTFNTYAMNWVRQAPGKGLEWVARIRSKYNNYATYYADSVKDRFTISRDDAKNTLYLQMNNLRTEDTAVYYCVRHGNFGNSYVSWFAYWGQGTLVTVSSGGGGSGGGGSGGGGSAQAVVTQEPSLTVSPGGTVTLTCRSSTGAVTTSNYANWVQQKPGQAPRGLIGGTNKRAPGTPARFSGSLLGGKAALTLSGAQPEDEAEYYCALWYSNLWVFGGGTKLTVLEPKSSDKTHTCPPCPAPEAAGGPSVFLFPPKPKDTLMISRTPEVTCVVVDVSHEDPEVKFNWYVDGVEVHNAKTKPREEQYNSTYRVVSVLTVLHQDWLNGKEYKCKVSNKALPAPIEKTISKAKGQPREPQVCTLPPSRDELTKNQVSLSCAVKGFYPSDIAVEWESNGQPENNYKTTPPVLDSDGSFFLVSKLTVDKSRWQQGNVFSCSVMHEALHNRYTQKSLSLSPGK | 27.4 | 9.62 | 0.00275 | 285000 | 1.3 | 0.00193 | 1.48e+06 | 2.79 | 0.00367 | 1.32e+06
